Experiment [1] deals with T1, human WISE G117A (human, UniProt Q6X4U4 24-206).
T1 construct: Alanine mutant of loop 2, used as supernatant of transiently transfected mammalian cells
T1 chain: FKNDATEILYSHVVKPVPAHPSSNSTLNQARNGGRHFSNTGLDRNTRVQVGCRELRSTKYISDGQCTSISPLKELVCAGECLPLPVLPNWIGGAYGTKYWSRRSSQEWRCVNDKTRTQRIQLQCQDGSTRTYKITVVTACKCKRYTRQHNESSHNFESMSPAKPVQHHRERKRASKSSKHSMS
The experiment is described as follows: capture ELISA, WISE mutant supernatant (FIG. 27). The method, then:
(§1) Relative capture of individual WISE mutant proteins or wild type proteins by either neutralizing antibodies or non-neutralizing antibodies was compared to assess whether any of these single amino acid changes affects the binding of an antibody to WISE protein. The bound WISE proteins were then detected using HRP-conjugated affinity-purified polyclonal antibody against WISE.
(§2) Purified anti-WISE antibodies (0.5 ug/ml) were added onto high-binding ELISA plates pre-coated with 1 ug/ml of goat anti-mouse IgG Fc (Pierce). Plates were incubated for 1 hour in room temperature. Plates were then washed 4× with Wash Buffer. Subsequently alanine scanned WISE loop-2 mutant supernatants from transient transfection cultures (100× diluted) were added and incubated for 1 hour in room temperature. After 4× wash, rabbit anti-WISE Pab-biotin (50 ng/ml)+NeutrAvidin-HRP (Pierce, Cat #31001) were added onto the plates and incubated for 1 hour in room temperature. Plates were again washed 4× with Wash Buffer. Binding was analyzed using 1-Step Ultra TMB-ELISA substrate (Pierce; Cat #34028) according to the manufacturer's instructions.
In general terms: ELISA stands for enzyme-linked immunosorbent assay.

The target of experiment [2] is T2, human WISE N112A (human, UniProt Q6X4U4 24-206).
T2 construct: Alanine mutant of loop 2, used as supernatant of transiently transfected mammalian cells
T2 chain: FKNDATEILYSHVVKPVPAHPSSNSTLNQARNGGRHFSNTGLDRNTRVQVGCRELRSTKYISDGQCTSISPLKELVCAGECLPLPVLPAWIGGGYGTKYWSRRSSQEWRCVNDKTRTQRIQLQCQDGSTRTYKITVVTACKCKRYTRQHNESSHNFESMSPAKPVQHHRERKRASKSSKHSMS
The experiment is described as follows: capture ELISA, WISE mutant supernatant (FIG. 27). The method, then: as §1, §2

Experiment [3] addresses T3, human WISE L110A (human, UniProt Q6X4U4 24-206).
T3 construct: Alanine mutant of loop 2, used as supernatant of transiently transfected mammalian cells
T3 chain: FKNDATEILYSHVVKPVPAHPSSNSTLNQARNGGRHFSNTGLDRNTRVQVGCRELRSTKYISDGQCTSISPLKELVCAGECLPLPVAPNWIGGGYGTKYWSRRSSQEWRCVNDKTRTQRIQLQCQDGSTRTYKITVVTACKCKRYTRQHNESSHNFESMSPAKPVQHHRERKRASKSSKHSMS
The experiment is described as follows: capture ELISA, WISE mutant supernatant (FIG. 27). The method, then: as §1, §2

The target in experiment [4] is T4, human WISE K121A (human, UniProt Q6X4U4 24-206).
T4 construct: Alanine mutant of loop 2, used as supernatant of transiently transfected mammalian cells
T4 chain: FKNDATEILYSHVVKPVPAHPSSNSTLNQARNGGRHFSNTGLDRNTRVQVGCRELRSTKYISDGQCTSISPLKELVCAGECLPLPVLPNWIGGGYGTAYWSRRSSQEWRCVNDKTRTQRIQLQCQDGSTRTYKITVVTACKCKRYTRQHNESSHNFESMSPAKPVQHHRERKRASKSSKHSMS
Put plainly: capture ELISA, WISE mutant supernatant (FIG. 22). The method, then:
as §1, §2

Experiment [5] addresses T5, human WISE I114A (human, UniProt Q6X4U4 24-206).
T5 construct: Alanine mutant of loop 2, used as supernatant of transiently transfected mammalian cells
T5 chain: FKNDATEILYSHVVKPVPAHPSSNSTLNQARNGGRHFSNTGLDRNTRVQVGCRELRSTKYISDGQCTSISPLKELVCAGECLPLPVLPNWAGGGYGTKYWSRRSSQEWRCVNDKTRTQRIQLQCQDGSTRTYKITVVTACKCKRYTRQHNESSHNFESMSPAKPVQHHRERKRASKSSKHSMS
Put plainly: capture ELISA, WISE mutant supernatant (FIG. 22). The method, then:
as §1, §2

For experiment [6], the target named is T6, human WISE (human, UniProt Q6X4U4 24-206).
T6 construct: Recombinant protein secreted from mammalian cells; also called hWISE; huWISE
T6 sequence: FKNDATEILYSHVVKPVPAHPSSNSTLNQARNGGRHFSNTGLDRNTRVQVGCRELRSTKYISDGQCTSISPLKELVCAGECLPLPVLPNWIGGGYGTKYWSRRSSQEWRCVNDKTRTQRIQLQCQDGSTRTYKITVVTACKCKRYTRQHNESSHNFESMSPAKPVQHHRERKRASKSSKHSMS
Put plainly: capture ELISA binding profile (FIG. 22). The method, then:
as §1, §2

B1: Ab-AJ (antibody, V domains shown)
VH: EVQLQQSGAELVRSGASVKLSCTASGFNIKDYYMHWVKQRPEQGLEWIGWIDPENGDTEYAPKFQGKATMTADTSSNTAYLQLSSLTSEDTAVYYCNFYDVYSEGALDYWGQGTSVTVSS
VL: DIVMSQSPSSLAVSAGEKVTMSCKSSQSLLNSRTRKNYLAWYQQKPGQSPKLLIYWASTRESGVPDRFTGSGSGTDFTLTISSVQAEDLAVYYCKQSYNLPTFGGGTKLEIK
notes: Murine anti-WISE monoclonal antibody; also called WISE Loop 2 Mab (Ab-AJ)
As for B1, the absorbance in experiment [1], in experiment [2] and in experiment [3] was at most 1.5 absorbance each time.

B2: Ab-AG (antibody, V domains shown)
VH: QIQLVQSGPELKKPGETVKISCKASGYTFTDYSMHWVKQAPGKGLKWMGWINTETGEPTYAADFKGRFAFSLETSASTAYLQINNLKNEDTATYFCTLTGYWGQGTSVTVSS
VL: DIQMTQSPASLSASVGETVTITCGASENIYGALNWYQRKQGKSPQLLIFGATNLADGMSSRFSGSGSGRQYSLEISSLHPDDVATYYCQNLFNSPLTFGAGTKLDLK
notes: Murine anti-WISE monoclonal antibody; also called WISE Loop 2 Mab (Ab-AG)
Take B2: the binding result in experiment [4], in experiment [5] and in experiment [6] was “binds” in each case.

These data come from patent US20120288507A1 (Amgen, published 2012).
